Source: patent US20090203886A1 (OSAKA UNIVERSITY, published 2009)
Numbering of substitutions follows the chain as printed. Several values for one entry are separate records, joined by “and”; a condition that tells them apart may be missing. Identical values can stand only once. Each block holds one binder with its values, some of them ahead of it.

Assays:
[1] = molecular target: T1, human CD20 antigen (human, UniProt P11836 1-297); test: cell-based or functional assay
T1 sequence (looked up): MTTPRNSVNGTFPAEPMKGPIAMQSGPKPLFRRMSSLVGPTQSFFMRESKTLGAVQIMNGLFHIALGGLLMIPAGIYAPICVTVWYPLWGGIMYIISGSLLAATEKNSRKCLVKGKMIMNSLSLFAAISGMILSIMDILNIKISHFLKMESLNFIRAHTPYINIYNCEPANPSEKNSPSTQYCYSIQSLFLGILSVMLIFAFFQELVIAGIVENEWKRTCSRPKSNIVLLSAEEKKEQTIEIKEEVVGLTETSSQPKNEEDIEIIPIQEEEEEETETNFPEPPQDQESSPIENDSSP

[2] = molecular target: T1, human CD20 antigen; test: cell-based or functional assay; remark: listed apart in the source
[3] = molecular target: T1, human CD20 antigen; test: Scatchard analysis on Raji cells, FITC anti human Fc secondary (Example 3)
Procedure: (§1) The reaction solution was 1% BSA-PBS solution with a cell number of 5×10⁶ cells and was injected into a 1.5 ml tube to a final volume of 100 μl. Three samples for each test antibody were prepared and four tubes to which antibody was not added were prepared as samples for background calculations.
(§2) After the detecting step, an image was digitized using image analysis software Image Quant (Amersham Bioscience) and analyzed using Excel (Microsoft). Average values for the same test antibodies were calculated and the values for background calculation samples (when only reacting a cell with a FITC-labeled secondary antibody) were subtracted from the test antibody values. The background values derived for the FITC-labeled secondary antibody binding non-specifically to cells, the PBS solution and the plate are omitted. At the same time, a standard curve was prepared by measuring the amount of fluorescence of only FITC-labeled secondary antibodies at amounts of 0, 12.5, 25, 50, 75, 100, 125, and 150 ng per 100 μl. In this manner, the number of moles of secondary antibody binding to cells was calculated. Assuming that each primary antibody and the FITC-labeled secondary antibody react at a ratio of […], the amount of cell-bound primary antibody was calculated. Primary antibody in suspension was calculated by subtracting the bound amount from the added amount. Scatchard analysis was performed using these values in order to calculate a dissociation constant Kd.

[4] = molecular target: T1, human CD20 antigen; test: Scatchard analysis on Raji cells (Example 3), average over the clones of the construct
Procedure: as §1, §2

- Kd [3]: 7.14 nM and 7.01 nM
- Kd [4]: 7.07 nM
B3: humanized 1K1791 antibody vv (VenL x VenH) (antibody, V domains shown)
VH: QIQLVQSGPELKKPGASVKISCKASGYTFTNFGVNWVKQAPGKGLKWMGWINTYTGEPSYADDFKGRFAFSLDASVSTAYLQISSLKAEDTSTYFCTRRTNYYGTSYYYAMDYWGQGTTVTVSS
VL: STVMTQSPDSLAVSLGERVTINCKASQSVSNDVAWYQQKPGQSPKVLIYFASNRYTGVPDRFSGSGYGTDFTFTISSVQAEDVAVYFCQQDYSSPLTFGAGTKLELK
notes: Kappa, gamma 1 construct; also called hz1791 vv; Vv018

- Kd [3]: 13.1 nM and 7.5 nM
- Kd [4]: 10.3 nM
B5: humanized 1K1791 antibody va (VenL x AbbH) (antibody, V domains shown)
VH: B3 VH with P9S, I20V, K38R, K46E, D62Q, D63G, K65T, A69V, S92A
VL: B3 VL
notes: Kappa, gamma 1 construct; also called hz1791 va; Va016

- Kd [3]: 14.3 nM and 10.8 nM
- Kd [4]: 12.6 nM
B7: humanized 1K1791 antibody sv (SdrL x VenH) (antibody, V domains shown)
VH: B3 VH
VL: B3 VL with V19A, A25S, V29N, T56S, F73L, V78L, L106I
notes: Kappa, gamma 1 construct; also called hz1791 sv; Sv015

- Kd [3]: 7.78 nM and 7.79 nM
- Kd [4]: 7.78 nM
B9: humanized 1K1791 antibody vf (VenL x FraH) (antibody, V domains shown)
VH: B3 VH with P9S, I20V, V76A, T91M, S92A
VL: B3 VL
notes: Kappa, gamma 1 construct; also called hz1791 vf; Vf029

The remaining lines, values behind:

B1: humanized 1K1791 antibody fv (FraL x VenH) (antibody, V domains shown)
VH: B3 VH
VL: B3 VL with D9S, S10F, A12S, V13A, L15V, E17D, N22T, F73L, V78L, L106I
notes: Kappa, gamma 1 construct; also called hz1791 fv; Fv010
- CDC (10 ug/ml), RAJI [1]: 99 relative, c2B8 = 100
- CDC (10 ug/ml), RC-K8 [1]: 498 relative, c2B8 = 100
- CDC (10 ug/ml), SUDHL4 [1]: 120 relative, c2B8 = 100
- CDC (10 ug/ml), WIL2NS [1]: 172 relative, c2B8 = 100
- Apoptosis (5 ug/ml), DHL4 [2]: 65 relative, m2B8 = 100
- Apoptosis (5 ug/ml), RAJI [2]: 88 relative, m2B8 = 100
- Apoptosis (5 ug/ml), RCK8 [2]: 50 relative, m2B8 = 100
- Apoptosis (5 ug/ml), Wil2-NS [2]: 49 relative, m2B8 = 100
- Kd [3]: 7.17 nM and 7.25 nM
- Kd [4]: 7.21 nM

B2: humanized 1K1791 antibody ff (FraL x FraH) (antibody, V domains shown)
VH: B3 VH with P9S, I20V, V76A, T91M, S92A
VL: B3 VL with D9S, S10F, A12S, V13A, L15V, E17D, N22T, F73L, V78L, L106I
notes: Kappa, gamma 1 construct; also called hz1791 ff; Ff019
- CDC (10 ug/ml), RAJI [1]: 98 relative, c2B8 = 100
- CDC (10 ug/ml), RC-K8 [1]: 530 relative, c2B8 = 100
- CDC (10 ug/ml), SUDHL4 [1]: 121 relative, c2B8 = 100
- CDC (10 ug/ml), WIL2NS [1]: 203 relative, c2B8 = 100
- Apoptosis (5 ug/ml), DHL4 [2]: 96 relative, m2B8 = 100
- Apoptosis (5 ug/ml), RAJI [2]: 84 relative, m2B8 = 100
- Apoptosis (5 ug/ml), RCK8 [2]: 47 relative, m2B8 = 100
- Apoptosis (5 ug/ml), Wil2-NS [2]: 49 relative, m2B8 = 100
- Kd [3]: 8.5 nM and 7.81 nM
- Kd [4]: 8.15 nM

B4: humanized 1K1791 antibody as (AbbL x SdrH) (antibody, V domains shown)
VH: B3 VH with P9S, I20V, K38R, D62Q, D63G, K65T, S92A
VL: B3 VL with V19A, A25S, T56S, F73L, V78L, L106I
notes: Kappa, gamma 1 construct; also called hz1791 as; As001
- Kd [3]: 11.9 nM and 11.5 nM
- Kd [4]: 11.7 nM

B6: humanized 1K1791 antibody fs (FraL x SdrH) (antibody, V domains shown)
VH: B3 VH with P9S, I20V, K38R, D62Q, D63G, K65T, S92A
VL: B3 VL with D9S, S10F, A12S, V13A, L15V, E17D, N22T, F73L, V78L, L106I
notes: Kappa, gamma 1 construct; also called hz1791 fs; Fs007
- Kd [3]: 6.33 nM and 11.1 nM
- Kd [4]: 8.71 nM

B8: humanized 1K1791 antibody ss (SdrL x SdrH) (antibody, V domains shown)
VH: B3 VH with P9S, I20V, K38R, D62Q, D63G, K65T, S92A
VL: B3 VL with V19A, A25S, V29N, T56S, F73L, V78L, L106I
notes: Kappa, gamma 1 construct; also called hz1791 ss; Ss020
- CDC (10 ug/ml), RAJI [1]: 73 relative, c2B8 = 100
- CDC (10 ug/ml), RC-K8 [1]: 108 relative, c2B8 = 100
- CDC (10 ug/ml), SUDHL4 [1]: 61 relative, c2B8 = 100
- CDC (10 ug/ml), WIL2NS [1]: 120 relative, c2B8 = 100
- Apoptosis (5 ug/ml), DHL4 [2]: 133 relative, m2B8 = 100
- Apoptosis (5 ug/ml), RAJI [2]: 202 relative, m2B8 = 100
- Apoptosis (5 ug/ml), RCK8 [2]: 92 relative, m2B8 = 100
- Apoptosis (5 ug/ml), Wil2-NS [2]: 108 relative, m2B8 = 100
- Kd [3]: 24.4 nM and 21.8 nM
- Kd [4]: 23.1 nM

B10: humanized 1K1791 antibody aa (AbbL x AbbH) (antibody, V domains shown)
VH: B3 VH with P9S, I20V, K38R, K46E, D62Q, D63G, K65T, A69V, S92A
VL: B3 VL with V19A, A25S, T56S, F73L, V78L, L106I
notes: Whole humanized antibody from CHO cells; construct name ends kg1 (kappa, gamma 1); The two clones are producer clones of one construct; also called hz1791 aa; Aa008
- Kd [3]: 11.7 nM and 9.96 nM
- Kd [4]: 10.8 nM
